From article doi:10.1101/749432 (2019)

B1: endothelial protein C receptor (EPCR), residues 16 to 210, biotinylated on the BAP tag (receptor)
chain: FCSQDASDGLQRLHMLQISYFRDPYHVWYQGNASLGGHLTHVLEGPDTNTTIIQLQPLQEPESWARTQSGLQSYLLQFHGLVRLVHQERTLAFPLTIRCFLGCELPPEGSRAHVFFEVAVNGSSFVSFRPERALWQADTQVTSGVVTFTLQQLNAYNRTRYELREFLEDTCVQYVQKHISAENTKGSQTSRSYTS
B2: synthetic binder (cys2 variant of design 469) (designed binder)
chain: NNWEQQKKNIEDDLDRYKKRAEELRKEAEKARKEARKTEDPTEEAKKEWEKRCKELEERARKLEDEAKDRVNDLFDSNFFQVIYSGDNDEEEWKKEKDRAEKEIEEWFKRIKEKCEEIKKRLEQ
modifications: biotin on the BAP tag (BirA)

Key:
[1] = molecular target: HB3var03 CIDRα1.4 domain (E. coli, refolded) (Plasmodium falciparum); assay: SPR; wild type, data from ref. 8
[2] = molecular target: B1; assay: SPR

Row | Binder | Kd [1] [pM] | koff [1] [s⁻¹] | koff [2] [s⁻¹]
1 | B1 | 400 | 0.000197 | 
2 | B2 |  |  | 0.000131
